{
  "source": "patent US7378234B2",
  "about": "“Method for isolating hepatitis C virus peptides” (Intercell AG, priority 2002, dated 2008)",
  "test_system": "HLA-B*0702 transgenic mice",
  "assay": "Vaccination of HLA-B*0702 transgenic mice (peptide + IC31), IFN-gamma ELISpot with spleen cells and CD8+ fraction",
  "type": "in vivo, mouse",
  "settings": "for specific INF-γ producing T cells / HLA-B*0702 epitope in HLA-B*0702 transgenic mice (in words): peptide + IC31, whole spleen cells and CD8+ fraction",
  "description": "Mouse splenocyte ELIspot assay for single cell IFN-gamma release ELISpot plates (MAHA S4510, Millipore, Germany) were rinsed with PBS (200 μl/well), coated with anti-mouse IFN-gamma mAb (clone R46A2; 100 μl/well of 5 μg/ml in 0.1 M NaHCO3, pH 9.2-9.5) and incubated overnight at 4° C. Plates were washed four times with PBS/0.1% Tween 20 and incubated with PBS/1% BSA (200 μl/well) at room temperature for 2 h to block nonspecific binding. Spleen cells from vaccinated mice were prepared and plated at 1×10^6-3×10^5 cells/well and incubated overnight at 37° C./5% CO2 either in the presence of the immunizing antigen (peptide), control peptides or with medium alone. Subsequently, plates were washed four times and incubated with biotinylated anti-mouse IFN-gamma mAb (clone AN18.17.24, 100 μl/well of 2 μg/ml in PBS/1% BSA) for 2 h at 37° C. After washing, streptavidin-peroxidase (Roche Diagnostics, Vienna, Austria) was added ( 1/5000 in PBS, 100 μl/well) and plates were incubated at room temperature for 2 additional hours. Subsequently, substrate was added to the washed plates (100 μl/well of a mixture of 10 ml 100 mM Tris pH 7.5 supplemented with 200 μl of 40 mg/ml DAB stock containing 50 μl of 80 mg/ml NiCl2 stock and 5 μl of 30% H2O2). The reaction was stopped after 20-30 minutes by washing the plates with tap water. Dried plates were evaluated with an ELISpot reader (BIOREADER 2000, BioSys, Karben, Germany).\nGroups of 5 mice (HLA-A*0201-, HLA-DRB1*0401- and HLA-B*0702 transgenic mice, male, 8-14 weeks of age) were injected subcutaneous into the hind footpads with 100 μg of peptide +IC31 per mouse (50 μg per footpad). (PCT/EP01/12041, WO 02/32451 A1 and PCT/EP01/06433, WO 01/93905 A1; IC31 is a combination of the immunizer disclosed in WO 01/93905 and WO 02/32451). […]",
  "note": "“Also recorded” adds a separate entry of the source.",
  "data": [
    {"molecule": "MSTNPKPQRKTKRNTNRRPQDVKFPGGGQIVGGVYLLPRRGPRLGVRATRKTSERSQPRGRRQPIPK (peptide) peptide: MSTNPKPQRKTKRNTNRRPQDVKFPGGGQIVGGVYLLPRRGPRLGVRATRKTSERSQPRGRRQPIPK", "values": [
      {"measurement": "Immunogenicity, peptide-specific IFN-gamma-producing cells, B*0702", "setting": "HLA-B*0702 transgenic mice, splenocytes", "result": "+ (immunogenic (+, less than 100 peptide-specific cells among a million splenocytes))"},
      {"measurement": "specific INF-γ producing T cells / HLA-B*0702 epitope in HLA-B*0702 transgenic mice (in words)", "result": "confirmed to contain human HLA-B*0702 epitopes; also recorded: HLA-B*0702 epitopes with T-cell activating capacity"},
      {"measurement": "specific INF-γ producing T cells / HLA-B*0702 epitope in HLA-B*0702 transgenic mice (in words)", "setting": "listed as Ipep1506", "result": "significant interferon-gamma induction"}
    ]}
  ]
}
